Assay results: US11248019B2, “Trityl-mono-GalNAc compounds and their use” (Hoffmann-La Roche Inc., priority 2016, dated 2022)

Assays:
Type in all cases: in vivo, C57BL6/J mice
[1] = Oligonucleotide content in liver and kidney by ELISA (Example 6); conditions: for Oligonucleotide content in kidney tissue / Oligonucleotide content in liver tissue: day 3
Protocol: (§1) Female C57BL6/J mice (5/group appr. 20 g at arrival) were injected intravenous (iv) with a single dose saline, 0.22 mg/kg, 0.45 mg/kg or 0.89 mg/kg, of GalNAc conjugated LNA antisense oligonucleotide (Compound H, I or J of the invention) or the naked reference compound F. Blood samples of 50 μl were collected pre-dosing at day minus 6. The animals were sacrificed at day 3. Total serum was collected as well as liver and kidney.
The oligonucleotide content in the liver and kidney was measured using ELISA (see for example Straarup et al 2010 Nucleic Acid Res Vol 38 pp 7100-7111), results are shown in Table 11A and 11B.

[2] = test system: total cholesterol in serum; assay: Total cholesterol in serum (Example 6); conditions: day 3
Protocol: as §1
Total cholesterol in serum was measured using ABX Pentra Cholesterol CP (Triolab, Brondby, Denmark) according to the manufacturer's instructions.

ALT in serum (Example 7) = conditions: 0.1 mg/kg single iv dose
Protocol: (§2) Female C57BL6/J mice (5/group appr. 20 g at arrival) were injected intravenous (iv) with a single dose saline or 0.1 mg/kg of GalNAc conjugated LNA antisense oligonucleotide (Compound J, K, L, B or C of the invention or reference compound M). Blood samples of 50 μl were collected pre-dosing at day minus 6, and post dosing at day 3, 7, 10 and 14. The animals were sacrificed at day 7 or 14 and total serum was collected as well as liver and kidney.
ALT (Alanine aminotransferase) was measured using ABX Pentra ALT CP reagent (A11A01627 Triolab, Brondby, Denmark. The results are shown in table 17.

[3] = Oligonucleotide content in liver and kidney by ELISA (Example 7); conditions: 0.1 mg/kg single iv dose
Protocol: as §2
The oligonucleotide content in the liver and kidney was measured using ELISA (see for example Straarup et al 2010 Nucleic Acid Res Vol 38 pp 7100-7111), results are shown in Table 16.

ALT in serum (Example 6) = assay: ALT in serum (Example 6)
Protocol: as §1
ALT (Alanine aminotransferase) was measured using ABX Pentra ALT CP reagent (A11A01627 Triolab, Brondby, Denmark. The results are shown in Table 13.

ApoB mRNA [4] = assay: ApoB mRNA knockdown in liver and kidney by qPCR, single iv dose, sacrifice day 3 (Example 6)
Protocol: (§3) ApoB mRNA knockdown was analyzed by qPCR. In brief, RNA was isolated from homogenized liver and kidney using MagnaPure RNA Isolation and purification system (catalog #03604721001 and #05467535001; Roche) according to the manufacturer's instructions. RT-QPCR was done using Taqman Fast Universal PCR Master Mix 2×(Applied Biosystems Cat #4364103) and Taqman gene expression assay (mApoB, Mn01545150_m1 and mGAPDH #4352339E) following the manufacturers protocol.
as §1

ApoB mRNA [5] = assay: ApoB mRNA knockdown in liver and kidney by qPCR, single iv dose 0.1 mg/kg, day 7 or 14 (Example 7); conditions: 0.1 mg/kg single iv dose
Protocol: as §3, §2
ApoB mRNA knock down was measured as described in example 4.

ApoB mRNA [6] = assay: ApoB mRNA knockdown in liver and kidney by qPCR, single sc dose, sacrifice day 10 (Example 4); conditions: for ApoB mRNA expression as % of saline, mRNA kidney: day 10, kidney; for ApoB mRNA expression as % of saline, mRNA liver: day 10, liver
Protocol: (§4) Female C57BL6/J mice (5/group appr. 20 g at arrival) were injected subcutaneous (sc) with a single dose saline or 0.25 mg/kg unconjugated LNA-antisense oligonucleotide (compound F) or with 0.25 mg/kg or 0.1 mg/kg of GalNAc conjugated LNA antisense oligonucleotide (Compound C or E of the invention or reference compound G). Blood samples of 50 μl were collected pre-dosing at day minus 6, and post dosing at day 3 and 7. The animals were sacrificed at day 10 and total serum was collected as well as liver and kidney.
as §3

[7] = Oligonucleotide content in liver and kidney by ELISA (Example 4); conditions: for Oligonucleotide content, Kidney / Oligonucleotide content, Liver: day 10
Protocol: as §4
The oligonucleotide content in the liver and kidney was measured using ELISA (see for example Straarup et al 2010 Nucleic Acid Res Vol 38 pp 7100-7111), results are shown in Table 6.

5′-GS^mCSaStStSgSgStSaStSTS^mCSA-3′ [Compound J]
Oligonucleotide content in kidney tissue ([1]; 0.22 mg/kg single iv dose): 0.169 µg/g | Oligonucleotide content in liver tissue ([1]; 0.22 mg/kg single iv dose): 0.313 µg/g | Oligonucleotide content in kidney tissue ([1]; 0.45 mg/kg single iv dose): 0.549 µg/g | Oligonucleotide content in liver tissue ([1]; 0.45 mg/kg single iv dose): 0.710 µg/g | Oligonucleotide content in kidney tissue ([1]; 0.89 mg/kg single iv dose): 1.040 µg/g | Oligonucleotide content in liver tissue ([1]; 0.89 mg/kg single iv dose): 1.478 µg/g | liver to kidney ratio compared to unconjugated (naked) oligonucleotide (compound F) ([1]; in words, tables 9 to 11): improved liver to kidney ratio | serum cholesterol percent of saline ([2]; 0.22 mg/kg single iv dose): 37.3% of saline | serum cholesterol percent of saline ([2]; 0.45 mg/kg single iv dose): 21.5% of saline | serum cholesterol percent of saline ([2]; 0.89 mg/kg single iv dose): 10.0% of saline | serum cholesterol reduction ([2]; in words, single iv dose): serum cholesterol reduction | ALT levels (U/L) in serum as % of saline (ALT in serum (Example 7); Day 7): 128.6 % of saline | ALT levels (U/L) in serum as % of saline (ALT in serum (Example 7); Day 14): 126.1 % of saline | Oligonucleotide content, Avg kidney ([3]; Day 7, kidney tissue): 0.153 µg/g | Oligonucleotide content, Avg liver ([3]; Day 7, liver tissue): 0.276 µg/g | Oligonucleotide content, Avg kidney ([3]; Day 14, kidney tissue): 0.079 µg/g | Oligonucleotide content, Avg liver ([3]; Day 14, liver tissue): 0.163 µg/g | ALT levels (U/L) in serum at day 3 as % of saline (ALT in serum (Example 6); 0.22 mg/kg single iv dose): 101 % of saline | ALT levels (U/L) in serum at day 3 as % of saline (ALT in serum (Example 6); 0.45 mg/kg single iv dose): 201 % of saline | ALT levels (U/L) in serum at day 3 as % of saline (ALT in serum (Example 6); 0.89 mg/kg single iv dose): 1558 % of saline | ALT levels (ALT in serum (Example 6); in words, highest dose (0.89 mg/kg)): some animals showed increase ALT levels | ApoB mRNA expression as % of saline in kidney (ApoB mRNA [4]; 0.22 mg/kg single iv dose): 117.0 % of saline | ApoB mRNA/mGAPDH expression as % of saline in liver (ApoB mRNA [4]; 0.22 mg/kg single iv dose): 12.8 % of saline | ApoB mRNA expression as % of saline in kidney (ApoB mRNA [4]; 0.45 mg/kg single iv dose): 90.7 % of saline | ApoB mRNA/mGAPDH expression as % of saline in liver (ApoB mRNA [4]; 0.45 mg/kg single iv dose): 6.3 % of saline | ApoB mRNA expression as % of saline in kidney (ApoB mRNA [4]; 0.89 mg/kg single iv dose): 64.1 % of saline | ApoB mRNA/mGAPDH expression as % of saline in liver (ApoB mRNA [4]; 0.89 mg/kg single iv dose): 3.0 % of saline | ApoB knock down in the liver (ApoB mRNA [4]; in words, single iv dose): improved ApoB knock down in the liver | ApoB mRNA/mGAPDH expression as % of saline, Avg kidney (ApoB mRNA [5]; Day 7, kidney): 83.9 % of saline | ApoB mRNA/mGAPDH expression as % of saline, Avg liver (ApoB mRNA [5]; Day 7, liver): 56.0 % of saline | ApoB mRNA/mGAPDH expression as % of saline, Avg kidney (ApoB mRNA [5]; Day 14, kidney): 96.8 % of saline | ApoB mRNA/mGAPDH expression as % of saline, Avg liver (ApoB mRNA [5]; Day 14, liver): 107.6 % of saline

5′-GS^mCSaStStSgSgStSaStSTS^mCSAOcOa-3′ [E]
ApoB mRNA expression as % of saline, mRNA kidney (ApoB mRNA [6]; 0.1 mg/kg single sc dose): 84.8 % of saline | ApoB mRNA expression as % of saline, mRNA liver (ApoB mRNA [6]; 0.1 mg/kg single sc dose): 60.5 % of saline | ApoB mRNA expression as % of saline, mRNA kidney (ApoB mRNA [6]; 0.25 mg/kg single sc dose): 51.0 % of saline | ApoB mRNA expression as % of saline, mRNA liver (ApoB mRNA [6]; 0.25 mg/kg single sc dose): 34.9 % of saline | knock down of ApoB mRNA compared to the GalNAc2 cluster conjugated LNA oligonucleotide (compound G) (ApoB mRNA [6]; in words, high dose (0.25 mg/kg)): comparable | knock down of ApoB mRNA in the liver compared to unconjugated (naked) oligonucleotide (compound F) (ApoB mRNA [6]; in words, single sc dose, day 10): improved knock down | Oligonucleotide content, Kidney ([7]; 0.1 mg/kg single sc dose): 0.094 μg/g tissue | Oligonucleotide content, Liver ([7]; 0.1 mg/kg single sc dose): 0.021 μg/g tissue | Oligonucleotide content, Kidney ([7]; 0.25 mg/kg single sc dose): 0.243 μg/g tissue | Oligonucleotide content, Liver ([7]; 0.25 mg/kg single sc dose): 0.069 μg/g tissue | uptake in liver and kidney compared to the unconjugated oligonucleotide (compound F) ([7]; in words): enhanced uptake in the liver and reduced uptake in the kidney
